Source: PMC5201196

Target: protein G´e (protein G prime e, extended)
Assay: MST

## IgG (antibody)
  Kd: 9.4 nM
